These results are taken from PMC6138732.

Holding throughout (assay): SEC; Protein A affinity, then S200 size exclusion to purify the hexamer fraction; analytical HPLC; hexamer counts Fc units
Background: SEC sorts molecules by how far they enter the pores of the column.

Assay [1] deals with IgG1 Fc hexamer (L309) (human).
Assay [2] addresses IgG1 Fc hexamer (L309C) (human).
Assay [3] deals with IgG4 Fc hexamer (L309) (human).
For assay [4], the target named is IgG4 Fc hexamer (L309C) (human).

One may read the stoichiometry N as a count of units in the complex or per binding partner. Turning to IgG1 Fc hexamer (L309), in assay [1], the stoichiometry N was 6.
IgG1 Fc hexamer (L309C) displayed a stoichiometry N in assay [2] of 6.
Take IgG4 Fc hexamer (L309): the stoichiometry N in assay [3] is 6.
With IgG4 Fc hexamer (L309C), the stoichiometry N in assay [4] was 6.
